Reference: PMC12152161 (2025)
One block for each binder: values may come before it.

Biological target: T1, His10 − MBP − KIF1C(714–809) (UniProt O43896 714-809)
T1 chain: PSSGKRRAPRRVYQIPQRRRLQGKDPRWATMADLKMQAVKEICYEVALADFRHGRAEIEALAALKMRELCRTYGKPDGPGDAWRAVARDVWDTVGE
Experiment: ITC

- Ka: 194000 M⁻¹
B1: His10 − MBP − PTPN21(19–308) (domain or fragment)
chain: SKSCLVARIQLLNNEFVEFTLSVESTGQESLEAVAQRLELREVTYFSLWYYNKQNQRRWVDLEKPLKKQLDKYALEPTVYFGVVFYVPSVSQLQQEITRYQYYLQLKKDILEGSIPCTLEQAIQLAGLAVQADFGDFDQYESQDFLQKFALFPVGWLQDEKVLEEATQKVALLHQKYRGLTAPDAEMLYMQEVERMDGYGEESYPAKDSQGSDISIGACLEGIFVKHKNGRHPVVFRWHDIANMSHNKSFFALELANKEETIQFQTEDMETAKYIWRLCVARHKFYRLNQ

- Ka: 631000 M⁻¹
B2: His10 − MBP−Hook3(553–624) (domain or fragment)
chain: EKLHEANNELQKKRAIIEDLEPRFNNSSLKIEELQEALRKKEEEMKQMEERYKKYLEKAKSVIRTLDPKQNQ
